We go through 1 molecule from PMC12155429, “PTPA Governs Stress-Responsive Differentiation and Metabolic Homeostasis in Toxoplasma gondii” (Cells, 2025).

For the test, the target named is T1, pMAL–PP2AA–His (Toxoplasma gondii PP2A A subunit) (Toxoplasma gondii, UniProt S8EX93 1-766).
T1 construct: PP2A A subunit of Toxoplasma gondii (TGME49_315670), amplified from Toxoplasma cDNA; printed length 766 aa, ~130 kDa with the pMAL tag; also called PP2A scaffold (A) subunit; source: E. coli, purified (MBPSep Dextrin Agarose Resin, eluted with 10 mM maltose); not shown: MBP (from the vector pMAL)
T1 sequence (looked up): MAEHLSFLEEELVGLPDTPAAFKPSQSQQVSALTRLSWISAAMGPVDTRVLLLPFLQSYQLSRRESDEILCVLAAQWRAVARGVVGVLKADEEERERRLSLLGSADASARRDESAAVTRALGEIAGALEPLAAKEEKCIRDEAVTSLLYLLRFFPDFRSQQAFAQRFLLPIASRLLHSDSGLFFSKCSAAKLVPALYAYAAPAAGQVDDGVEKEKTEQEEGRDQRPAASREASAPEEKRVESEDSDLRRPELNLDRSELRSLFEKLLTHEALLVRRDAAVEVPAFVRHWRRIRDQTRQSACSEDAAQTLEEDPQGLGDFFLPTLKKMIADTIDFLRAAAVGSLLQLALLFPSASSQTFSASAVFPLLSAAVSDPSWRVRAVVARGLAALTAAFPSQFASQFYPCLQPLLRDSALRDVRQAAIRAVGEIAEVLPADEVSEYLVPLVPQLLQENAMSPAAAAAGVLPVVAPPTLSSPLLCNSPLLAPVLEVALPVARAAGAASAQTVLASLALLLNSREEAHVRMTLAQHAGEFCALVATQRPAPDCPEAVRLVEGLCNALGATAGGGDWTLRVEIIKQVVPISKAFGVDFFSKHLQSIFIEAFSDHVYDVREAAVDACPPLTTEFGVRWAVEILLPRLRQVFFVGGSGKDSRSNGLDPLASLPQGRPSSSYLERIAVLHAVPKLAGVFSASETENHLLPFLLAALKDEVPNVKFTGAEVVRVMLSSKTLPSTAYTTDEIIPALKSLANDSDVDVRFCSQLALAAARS
Description: pull-down; anti-His or anti-HA magnetic beads washed with TBS, incubated with the tagged protein 5 h at 4 °C, then with the target protein 5 h; washed, eluted, Western blot. The following applies: both partners purified. On the technique in general: Immunoblotting shows a protein as a band on a membrane.

B1: pMAL–PP2AC–HA (Toxoplasma gondii PP2A C subunit) (enzyme, UniProt A0A125YNB3 1-347, looked up)
chain: MSGATPGAVAALQPASAAPALFTIPADVAPSDLPDHYLGQEELRGIDKQMEKLFKCEKLDEEEVRSLCAVLKDILVQEANVQPVRTPVTVVGDIHGQFHDLLEIFKCAGTCPSVNFLFLGDYVDRGLNSVESVSLVFLLKVRYRHRVTLIRGNHESRQITQVYGFYDECLRKYGNANVWNYFTDVFDYLPLSALIEDQIFCPHAGLSPTIETLDHVRLLERFQEVPHEGPMCDLLWSDPEEQMPGWGMSPRGAGYTFGQDISEKFNHVNGLKLIARAHQLIMEGFQWSQANNVVTIFSAPNYCYRCGNQAAIMKIDEHMNYTFIQFNPSLLQASGADMQKRIPDYFL
notes: PP2A C subunit of Toxoplasma gondii (TGME49_224220), amplified from Toxoplasma cDNA; printed length 347 aa, ~80 kDa with the pMAL tag; also called PP2A catalytic (C) subunit; source: E. coli, purified (MBPSep Dextrin Agarose Resin, eluted with 10 mM maltose); not shown: MBP (from the vector pMAL)
Take B1: the binding result is given as “binds”.
